In the supplement of paper PMC5998384:

How the values were obtained:
HeLa Kyoto [1] = assay: melting temperature (median over replicates), in situ; higher = more thermally stable
HeLa Kyoto [2] = assay: solubility in G1/S (NP-40 vs SDS abundance) (log2 ratio); higher = more soluble; conditions: cell cycle stage: G1/S
HeLa Kyoto [3] = assay: solubility change mitosis vs G1/S (difference of NP-40 vs SDS log2 ratios) (log2 ratio difference); higher = more soluble in mitosis
HeLa Kyoto [4] = assay: thermal stability score vs G1/S (z-score of summed log2 fold changes over temperatures); higher = more thermally stable than in G1/S
[5] = cell cycle stage: early G1 (4.5 h after nocodazole release)
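Wherever melting temperature (median over replicates), in situ is given: HeLa Kyoto cells synchronized by double thymidine or nocodazole block, proteins quantified by TMT10plex mass spectrometry, three independent biological replicates.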
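Wherever solubility change mitosis vs G1/S (difference of NP-40 vs SDS log2 ratios) is given: synchronized HeLa Kyoto cells (double thymidine block for G1/S, nocodazole release for mitosis), protein amounts in NP-40 versus SDS lysates quantified by mass spectrometry, three biological replicates.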
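Wherever solubility in G1/S (NP-40 vs SDS abundance) is given: HeLa Kyoto cells arrested at G1/S by double thymidine block, proteins quantified by TMT10plex mass spectrometry in mild NP-40 versus SDS extracts, three biological replicates.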
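Wherever thermal stability score vs G1/S (z-score of summed log2 fold changes over temperatures) is given: synchronized HeLa Kyoto cells, proteins quantified by TMT10plex mass spectrometry, three biological replicates, mitosis taken 0.5 h after nocodazole release, G1/S directly after double thymidine block.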

Chain of PHF23 (chain, as listed by the source): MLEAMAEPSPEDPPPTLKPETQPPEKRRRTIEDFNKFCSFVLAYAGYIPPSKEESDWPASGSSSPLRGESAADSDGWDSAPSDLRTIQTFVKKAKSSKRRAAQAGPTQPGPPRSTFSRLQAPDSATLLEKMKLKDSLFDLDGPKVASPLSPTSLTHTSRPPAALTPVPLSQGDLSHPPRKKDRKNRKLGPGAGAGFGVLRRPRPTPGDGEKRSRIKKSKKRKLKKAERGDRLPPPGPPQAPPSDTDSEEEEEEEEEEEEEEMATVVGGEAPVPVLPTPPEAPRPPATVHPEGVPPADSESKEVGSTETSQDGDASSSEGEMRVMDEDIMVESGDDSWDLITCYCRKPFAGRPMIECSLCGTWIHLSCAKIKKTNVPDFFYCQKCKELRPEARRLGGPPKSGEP

Substance	melting temperature (HeLa Kyoto [1]; cell cycle stage: G1/S) [°C]	melting temperature (HeLa Kyoto [1]; cell cycle stage: mitosis) [°C]	solubility in G1/S (log2) (HeLa Kyoto [2])	solubility change mitosis (log2) (HeLa Kyoto [3])	thermal stability score (HeLa Kyoto [4]; [5])	thermal stability score (HeLa Kyoto [4]; cell cycle stage: mitosis)
MPTVSVKRDLLFQALGRTYTDEEFDELCFEFGLELDEITSEKEIISKEQGNVKAAGASDVVLYKIDVPANRYDLLCLEGLVRGLQVFKERIKAPVYKRVMPDGKIQKLIITEETAKIRPFAVAAVLRNIKFTKDRYDSFIELQEKLHQNICRKRALVAIGTHDLDTLSGPFTYTAKRPSDIKFKPLNKTKEYTACELMNIYKTDNHLKHYLHIIENKPLYPVIYDSNGVVLSMPPIINGDHSRITVNTRNIFIECTGTDFTKAKIVLDIIVTMFSEYCENQFTVEAAEVVFPNGKSHTFPELAYRKEMVRADLINKKVGIRETPENLAKLLTRMYLKSEVIGDGNQIEIEIPPTRADIIHACDIVEDAAIAYGYNNIQMTLPKTYTIANQFPLNKLTELLRHDMAAAGFTEALTFALCSQEDIADKLGVDISATKAVHISNPKTAEFQVARTTLLPGLLKTIAANRKMPLPLKLFEISDIVIKDSNTDVGAKNYRHLCAVYYNKNPGFEIIHGLLDRIMQLLDVPPGEDKGGYVIKASEGPAFFPGRCAEIFARGQSVGKLGVLHPDVITKFELTMPCSSLEINVGPFL [FARSB]	50.4	50.2	0.00374	-0.031	2.32	0.692
MNRFRVSKFRHTEARPPRRESWISDIRAGTAPSCRNHIKSSCSLIAFNSDRPGVLGIVPLQGQGEDKRRVAHLGCHSDLVTDLDFSPFDDFLLATGSADRTVKLWRLPGPGQALPSAPGVVLGPEDLPVEVLQFHPTSDGILVSAAGTTVKVWDAAKQQPLTELAAHGDLVQSAVWSRDGALVGTACKDKQLRIFDPRTKPRASQSTQAHENSRDSRLAWMGTWEHLVSTGFNQMREREVKLWDTRFFSSALASLTLDTSLGCLVPLLDPDSGLLVLAGKGERQLYCYEVVPQQPALSPVTQCVLESVLRGAALVPRQALAVMSCEVLRVLQLSDTAIVPIGYHVPRKAVEFHEDLFPDTAGCVPATDPHSWWAGDNQQVQKVSLNPACRPHPSFTSCLVPPAEPLPDTAQPAVMETPVGDADASEGFSSPPSSLTSPSTPSSLGPSLSSTSGIGTSPSLRSLQSLLGPSSKFRHAQGTVLHRDSHITNLKGLNLTTPGESDGFCANKLRVAVPLLSSGGQVAVLELRKPGRLPDTALPTLQNGAAVTDLAWDPFDPHRLAVAGEDARIRLWRVPAEGLEEVLTTPETVLTGHTEKICSLRFHPLAANVLASSSYDLTVRIWDLQAGADRLKLQGHQDQIFSLAWSPDGQQLATVCKDGRVRVYRPRSGPEPLQEGPGPKGGRGARIVWVCDGRCLLVSGFDSQSERQLLLYEAEALAGGPLAVLGLDVAPSTLLPSYDPDTGLVLLTGKGDTRVFLYELLPESPFFLECNSFTSPDPHKGLVLLPKTECDVREVELMRCLRLRQSSLEPVAFRLPRVRKEFFQDDVFPDTAVIWEPVLSAEAWLQGANGQPWLLSLQPPDMSPVSQAPREAPARRAPSSAQYLEEKSDQQKKEELLNAMVAKLGNREDPLPQDSFEGVDEDEWD [CORO7]	51	51.9	-0.00965	0.159	0.406	0.778
MERAESSSTEPAKAIKPIDRKSVHQICSGQVVLSLSTAVKELVENSLDAGATNIDLKLKDYGVDLIEVSDNGCGVEEENFEGLTLKHHTSKIQEFADLTQVETFGFRGEALSSLCALSDVTISTCHASAKVGTRLMFDHNGKIIQKTPYPRPRGTTVSVQQLFSTLPVRHKEFQRNIKKEYAKMVQVLHAYCIISAGIRVSCTNQLGQGKRQPVVCTGGSPSIKENIGSVFGQKQLQSLIPFVQLPPSDSVCEEYGLSCSDALHNLFYISGFISQCTHGVGRSSTDRQFFFINRRPCDPAKVCRLVNEVYHMYNRHQYPFVVLNISVDSECVDINVTPDKRQILLQEEKLLLAVLKTSLIGMFDSDVNKLNVSQQPLLDVEGNLIKMHAADLEKPMVEKQDQSPSLRTGEEKKDVSISRLREAFSLRHTTENKPHSPKTPEPRRSPLGQKRGMLSSSTSGAISDKGVLRPQKEAVSSSHGPSDPTDRAEVEKDSGHGSTSVDSEGFSIPDTGSHCSSEYAASSPGDRGSQEHVDSQEKAPKTDDSFSDVDCHSNQEDTGCKFRVLPQPTNLATPNTKRFKKEEILSSSDICQKLVNTQDMSASQVDVAVKINKKVVPLDFSMSSLAKRIKQLHHEAQQSEGEQNYRKFRAKICPGENQAAEDELRKEISKTMFAEMEIIGQFNLGFIITKLNEDIFIVDQHATDEKYNFEMLQQHTVLQGQRLIAPQTLNLTAVNEAVLIENLEIFRKNGFDFVIDENAPVTERAKLISLPTSKNWTFGPQDVDELIFMLSDSPGVMCRPSRVKQMFASRACRKSVMIGTALNTSEMKKLITHMGEMDHPWNCPHGRPTMRHIANLGVISQN [PMS2]	48.3	49.7	-0.0345	-0.029	1.02	1.74
MATSVLCCLRCCRDGGTGHIPLKEMPAVQLDTQHMGTDVVIVKNGRRICGTGGCLASAPLHQNKSYFEFKIQSTGIWGIGVATQKVNLNQIPLGRDMHSLVMRNDGALYHNNEEKNRLPANSLPQEGDVVGITYDHVELNVYLNGKNMHCPASGIRGTVYPVVYVDDSAILDCQFSEFYHTPPPGFEKILFEQQIF [SPRYD7]	52.6	54.2	0.156	-0.19	0.0977	-1.67
MADSKEGVLPLTAASTAPISFGFTRTSARRRLADSGDGAGPSPEEKDFLKTVEGRELQSVKPQEAPKELVIPLIQNGHRRQPPARPPGPSTDTGALADGVVSQAVKELIAESKKSLEERENAGVDPTLAIPMIQKGCTPSGEGADSEPRAETVPEEANYEAVPVEAYGLAMLRGMGWKPGEGIGRTFNQVVKPRVNSLRPKGLGLGANLTEAQALTPTGPSRMPRPDEEQEKDKEDQPQGLVPGGAVVVLSGPHRGLYGKVEGLDPDNVRAMVRLAVGSRVVTVSEYYLRPVSQQEFDKNTLDLRQQNGTASSRKTLWNQELYIQQDNSERKRKHLPDRQDGPAAKSEKAAPRSQHWLHRDLRVRFVDNMYKGGQYYNTKMIIEDVLSPDTCVCRTDEGRVLEGLREDMLETLVPKAEGDRVMVVLGPQTGRVGHLLSRDRARSRALVQLPRENQVVELHYDAICQYMGPSDTDDD [GPKOW]	48.8	49.8	0.393	-0.0336	0.906	2.23
EHBP1L1	49.7	49.1	-0.0555	-0.0696	-1.13	2.05
MLRCLYHWHRPVLNRRWSRLCLPKQYLFTMKLQSPEFQSLFTEGLKSLTELFVKENHELRIAGGAVRDLLNGVKPQDIDFATTATPTQMKEMFQSAGIRMINNRGEKHGTITARLHEENFEITTLRIDVTTDGRHAEVEFTTDWQKDAERRDLTINSMFLGFDGTLFDYFNGYEDLKNKKVRFVGHAKQRIQEDYLRILRYFRFYGRIVDKPGDHDPETLEAIAENAKGLAGISGERIWVELKKILVGNHVNHLIHLIYDLDVAPYIGLPANASLEEFDKVSKNVDGFSPKPVTLLASLFKVQDDVTKLDLRLKIAKEEKNLGLFIVKNRKDLIKATDSSDPLKPYQDFIIDSREPDATTRVCELLKYQGEHCLLKEMQQWSIPPFPVSGHDIRKVGISSGKEIGALLQQLREQWKKSGYQMEKDELLSYIKKT [TRNT1]	50.9	50.2	0.146	-0.109	1.75	1.59
MGNVLAASSPPAGPPPPPAPALVGLPPPPPSPPGFTLPPLGGSLGAGTSTSRSSERTPGAATASASGAAEDGACGCLPNPGTFEECHRKCKELFPIQMEGVKLTVNKGLSNHFQVNHTVALSTIGESNYHFGVTYVGTKQLSPTEAFPVLVGDMDNSGSLNAQVIHQLGPGLRSKMAIQTQQSKFVNWQVDGEYRGSDFTAAVTLGNPDVLVGSGILVAHYLQSITPCLALGGELVYHRRPGEEGTVMSLAGKYTLNNWLATVTLGQAGMHATYYHKASDQLQVGVEFEASTRMQDTSVSFGYQLDLPKANLLFKGSVDSNWIVGATLEKKLPPLPLTLALGAFLNHRKNKFQCGFGLTIG [TOMM40]	62.9	61.7	0.262	-0.17	-1.53	-3.48
MPRVVPDQRSKFENEEFFRKLSRECEIKYTGFRDRPHEERQARFQNACRDGRSEIAFVATGTNLSLQFFPASWQGEQRQTPSREYVDLEREAGKVYLKAPMILNGVCVIWKGWIDLQRLDGMGCLEFDEERAQQEDALAQQAFEEARRRTREFEDRDRSHREEMEVRVSQLLAVTGKKTTRP [CBFB]	49	51.2	0.199	-0.072	0.755	0.955
PHF23	51.1	53.2	0.107	0.0233	-0.742	0.2
MLLTVYCVRRDLSEVTFSLQVDADFELHNFRALCELESGIPAAESQIVYAERPLTDNHRSLASYGLKDGDVVILRQKENADPRPPVQFPNLPRIDFSSIAVPGTSSPRQRQPPGTQQSHSSPGEITSSPQGLDNPALLRDMLLANPHELSLLKERNPPLAEALLSGDLEKFSRVLVEQQQDRARREQERIRLFSADPFDLEAQAKIEEDIRQQNIEENMTIAMEEAPESFGQVVMLYINCKVNGHPVKAFVDSGAQMTIMSQACAERCNIMRLVDRRWAGIAKGVGTQKIIGRVHLAQVQIEGDFLPCSFSILEEQPMDMLLGLDMLKRHQCSIDLKKNVLVIGTTGSQTTFLPEGELPECARLAYGAGREDVRPEEIADQELAEALQKSAEDAERQKP [DDI2]	52.8	53	0.489	-0.11	-0.385	0.166
MDLNSASTVVLQVLTQATSQDTAVLKPAEEQLKQWETQPGFYSVLLNIFTNHTLDINVRWLAVLYFKHGIDRYWRRVAPHALSEEEKTTLRAGLITNFNEPINQIATQIAVLIAKVARLDCPRQWPELIPTLIESVKVQDDLRQHRALLTFYHVTKTLASKRLAADRKLFYDLASGIYNFACSLWNHHTDTFLQEVSSGNEAAILSSLERTLLSLKVLRKLTVNGFVEPHKNMEVMGFLHGIFERLKQFLECSRSIGTDNVCRDRLEKTIILFTKVLLDFLDQHPFSFTPLIQRSLEFSVSYVFTEVGEGVTFERFIVQCMNLIKMIVKNYAYKPSKNFEDSSPETLEAHKIKMAFFTYPTLTEICRRLVSHYFLLTEEELTMWEEDPEGFTVEETGGDSWKYSLRPCTEVLFIDIFHEYNQTLTPVLLEMMQTLQGPTNVEDMNALLIKDAVYNAVGLAAYELFDSVDFDQWFKNQLLPELQVIHNRYKPLRRRVIWLIGQWISVKFKSDLRPMLYEAICNLLQDQDLVVRIETATTLKLTVDDFEFRTDQFLPYLETMFTLLFQLLQQVTECDTKMHVLHVLSCVIERVNMQIRPYVGCLVQYLPLLWKQSEEHNMLRCAILTTLIHLVQGLGADSKNLYPFLLPVIQLSTDVSQPPHVYLLEDGLELWLVTLENSPCITPELLRIFQNMSPLLELSSENLRTCFKIINGYIFLSSTEFLQTYAVGLCQSFCELLKEITTEGQVQVLKVVENALKVNPILGPQMFQPILPYVFKGIIEGERYPVVMSTYLGVMGRVLLQNTSFFSSLLNEMAHKFNQEMDQLLGNMIEMWVDRMDNITQPERRKLSALALLSLLPSDNSVIQDKFCGIINISVEGLHDVMTEDPETGTYKDCMLMSHLEEPKVTEDEEPPTEQDKRKKMLALKDPVHTVSLQQFIYEKLKAQQEMLGEQGFQSLMETVDTEIVTQLQEFLQGF [IPO11]	51.5	50.8	-0.209	-0.25	1.33	0.273
MSSTLAKIAEIEAEMARTQKNKATAHHLGLLKARLAKLRRELITPKGGGGGGPGEGFDVAKTGDARIGFVGFPSVGKSTLLSNLAGVYSEVAAYEFTTLTTVPGVIRYKGAKIQLLDLPGIIEGAKDGKGRGRQVIAVARTCNLILIVLDVLKPLGHKKIIENELEGFGIRLNSKPPNIGFKKKDKGGINLTATCPQSELDAETVKSILAEYKIHNADVTLRSDATADDLIDVVEGNRVYIPCIYVLNKIDQISIEELDIIYKVPHCVPISAHHRWNFDDLLEKIWDYLKLVRIYTKPKGQLPDYTSPVVLPYSRTTVEDFCMKIHKNLIKEFKYALVWGLSVKHNPQKVGKDHTLEDEDVIQIVKK [DRG1]	53.8	53.4	0.118	-0.0219	-0.58	-2.04
